Data from patent US8263074B2, “Fibroblast growth factor receptor-1 inhibitors and methods of treatment thereof” (ImClone LLC, priority 2003, dated 2012).

Legend:
[1] = target: T1, FGFR-2c (Homo sapiens, UniProt P21802); assay: BiaCore binding kinetics; details: BiaCore kinetic analysis
T1 construct: purchased R&D Systems

[2] = target: T2, FGFR-1(IIIb) (Homo sapiens, UniProt P11362); assay: ELISA binding assay
T2 construct: purchased R&D Systems
Experimental: (§1) Recombinant FGFRs (R&D systems) at a concentration of 1 μg/ml in PBS were coated on 96-well plates at room temperature for 2 hrs. The plates were washed 3 times with 0.2% Tween20/PBS, and blocked with 5% milk/PBS for 2 hrs before use. FR1-H7 or FR1-A1 was added to the plate and serially diluted in 0.2% Tween20/PBS. The plate was incubated at room temperature for 2 more hrs. The captured antibodies were detected using an anti-human light chain monoclonal antibody conjugated with […] (Pierce Biotechnology, Rockford, Ill.) solution prepared according to supplier's instructions.

[3] = tested on: other FGFRs; assay: ELISA binding assay
Experimental: as §1

[4] = target: T3, FGFR-1 (Homo sapiens, UniProt P11362); assay: Phosphorylation assay in FGFR-1 expressing L6 cells (western blot); assay type: cell-based; details: anti-phospho-tyrosine western blot
T3 construct: expressed in transfected cells; host or cells: L6 (ATCC), pBABE retroviral vector
T3 sequence (P11362 22-822): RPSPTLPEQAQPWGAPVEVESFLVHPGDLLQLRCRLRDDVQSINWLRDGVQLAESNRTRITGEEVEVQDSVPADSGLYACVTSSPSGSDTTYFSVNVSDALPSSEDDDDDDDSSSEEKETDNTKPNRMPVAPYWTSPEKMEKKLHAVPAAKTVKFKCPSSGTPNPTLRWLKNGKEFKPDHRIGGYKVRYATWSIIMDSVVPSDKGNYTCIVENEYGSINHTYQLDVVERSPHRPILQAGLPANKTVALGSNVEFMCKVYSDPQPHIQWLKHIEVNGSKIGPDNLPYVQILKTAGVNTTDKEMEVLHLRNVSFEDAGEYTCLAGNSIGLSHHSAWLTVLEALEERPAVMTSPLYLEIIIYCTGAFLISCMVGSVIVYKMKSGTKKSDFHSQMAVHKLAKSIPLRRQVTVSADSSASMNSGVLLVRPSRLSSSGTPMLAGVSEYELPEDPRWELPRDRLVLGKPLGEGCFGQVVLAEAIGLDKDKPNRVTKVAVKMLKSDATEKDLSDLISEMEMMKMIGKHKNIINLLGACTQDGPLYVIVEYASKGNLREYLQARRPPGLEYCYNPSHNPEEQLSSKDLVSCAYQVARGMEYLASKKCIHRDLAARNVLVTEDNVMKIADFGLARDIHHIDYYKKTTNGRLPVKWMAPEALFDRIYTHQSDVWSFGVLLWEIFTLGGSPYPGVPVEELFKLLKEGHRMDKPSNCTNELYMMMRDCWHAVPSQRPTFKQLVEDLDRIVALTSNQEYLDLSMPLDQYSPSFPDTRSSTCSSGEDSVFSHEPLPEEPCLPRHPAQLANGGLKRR
Experimental: FGFR-1 expressing L6 cells were cultured in 10% FBS, DMEM, in a 24-well tissue culture plate till confluency. Cells were Serum starved in 5 μg/ml heparin, 0.1% FBS, DMEM, for 8-24 hrs. Either FR1-H7 or FR1-A1 was added to the media and allowed to bind with the cell surface receptors at 37° C. for 1 hr. Cells were then stimulated with 20 ng/ml FGFs at 37° C. for 10 min before they were lyzed using ice-cold lysis buffer for 30 min. Cell lysate was subjected to SDS-PAGE followed by western blot. Membranes were probed with anti-phospho-tyrosine antibody (Cell Signaling Technology, Inc., Beverly, Mass.) for detection of phosphorylated FGFR-1 receptors according to supplier's instructions.
The phosphorylation assay for small molecules is essentially the same as the phosphorylation assay described in Examples 7 and 15 and Phosphorylation Assay, except that small molecule compounds was used instead of FGFR-1 antibodies in all occasions. […] Equal amount of cell lysates were applied to each sample lane. Receptor auto-phosphorylation was probed using anti-phospho-tyrosine antibody as described in the original patent.

[5] = Repeated-dose study in female athymic nude mice: body weight, food intake, rearing, blood glucose; assay type: in vivo
Experimental: Female athymic nude mice (Cr1:NU/NU-nuBR, Charles River Laboratories, Wilmington, Mass.) were housed 4-5 per cage. Mice were given autoclaved food (Lab Diet #5001, PMI Feeds Inc., St. Louis, Mo.) and water ad libitum. All animal use in this study was conducted in compliance with approved institutional animal care and use protocols, and according to NIH guidelines (Guide for the Care and Use of Laboratory Animals, NIH publication no. 86-23, 1985).
In one assay, mice were injected intraperitoneally (i.p.) with FR1-H7 at 0.19, 1.9, and 19 mg/kg body weight (n=5 per group). In another assay, mice were injected subcutaneously (s.c.) with the antibody, at 0.4, 4, and 40 mg/kg body weight. In control arms, mice were treated with saline i.p. or s.c. In addition, one group of mice was left untreated (n=4). All treatments were given at a volume of 10 μl/g body weight in Saline. Treatments were started on a Wednesday (Day 0) with additional treatments on the following Friday, Monday, Wednesday, and Friday. After this 9-day treatment period mice received no additional treatments.
Alternatively, female athymic nude mice were injected (i.p.) with saline, 2 mg/kg, or 20 mg/kg FR1-A1 on a Monday (Day 0) and Wednesday. Body weights were measured before the first injection, and on Day 2 and Day 5. Food intake per group was measured 2 days after the first injection.
The body weights of all animals were measured 3 times/week. Food consumption, behavior, and serum glucose were evaluated as follows. Food Intake Measurement: Prior to the treatment on Day 2 mice were placed in a new cage and the weight of the food container in the cage top was weighed. Prior to the treatment on Day 5 the weight of the food container was measured again. The difference in the Day 2 to Day 5 food container weight was divided by the number of mice per cage and the number of days between the measurements to give a food intake per mouse per 24 hrs. Activity Measurement: On Day 12, 3 days after the final treatment, mice were placed individually into a new cage and the number of rearings was counted over a 1 min period. Blood Glucose Measurement On Day 16, 7 days after the final treatment, non-fasted blood glucose was measured in blood collected from the tip of the tail using an Ascensia Elite XL blood glucose meter (glucose oxidase method, Bayer, Pittsburg, Pa.).

[6] = Single-dose short-term study in female athymic nude mice: body and tissue weights, serum chemistry; assay type: in vivo
Experimental: Short-term effects of the FR1-H7 antibody on serum levels of insulin, leptin, glucose, and triglycerides were examined by injecting 4 mg/kg antibody or control vehicle into female athymic nude mice. Samples were collected and evaluated before treatment and 6, 24, and 48 hours after treatment. Alanine aminotransferase (ALT), […], blood urea nitrogen (BUN), total serum proteins, and serum albumin levels were measured using serum samples taken 48 hours after treatment. The mice were sacrificed and weights of their left parametrial fat pad, left tibialis anterior muscle, left posterior liver lobe, and spleen were also taken.

[7] = Body weight, food intake and adipose tissue in db/db mice; assay type: in vivo; details: 4 mg/kg s.c.
Experimental: The db/db 7 week old mice were injected subcutaneously with 4 mg/kg antibody on a Monday, Wednesday, and Friday schedule with body weights being measured before each injection and on day 7. Food intake was monitored as well on days 1, 2, 3, 4, and 7. The db/db animals were sacrificed on day 7 and their intrascapular brown fat, epididymal white adipose tissue, and inguinal subcutaneous white adipose tissue were sampled and weighed.

[8] = Repeated-dose study in female athymic nude mice: body weight, food intake, rearing, blood glucose; assay type: in vivo; details: day 64
[9] = target: FGFR-1(IIIc) (Homo sapiens, UniProt P11362); assay: ELISA binding assay; parameters: purchased R&D Systems
Chain of FGFR-1(IIIc) (P11362 22-822): as above
Experimental: as §1

T1 sequence (P21802 22-821): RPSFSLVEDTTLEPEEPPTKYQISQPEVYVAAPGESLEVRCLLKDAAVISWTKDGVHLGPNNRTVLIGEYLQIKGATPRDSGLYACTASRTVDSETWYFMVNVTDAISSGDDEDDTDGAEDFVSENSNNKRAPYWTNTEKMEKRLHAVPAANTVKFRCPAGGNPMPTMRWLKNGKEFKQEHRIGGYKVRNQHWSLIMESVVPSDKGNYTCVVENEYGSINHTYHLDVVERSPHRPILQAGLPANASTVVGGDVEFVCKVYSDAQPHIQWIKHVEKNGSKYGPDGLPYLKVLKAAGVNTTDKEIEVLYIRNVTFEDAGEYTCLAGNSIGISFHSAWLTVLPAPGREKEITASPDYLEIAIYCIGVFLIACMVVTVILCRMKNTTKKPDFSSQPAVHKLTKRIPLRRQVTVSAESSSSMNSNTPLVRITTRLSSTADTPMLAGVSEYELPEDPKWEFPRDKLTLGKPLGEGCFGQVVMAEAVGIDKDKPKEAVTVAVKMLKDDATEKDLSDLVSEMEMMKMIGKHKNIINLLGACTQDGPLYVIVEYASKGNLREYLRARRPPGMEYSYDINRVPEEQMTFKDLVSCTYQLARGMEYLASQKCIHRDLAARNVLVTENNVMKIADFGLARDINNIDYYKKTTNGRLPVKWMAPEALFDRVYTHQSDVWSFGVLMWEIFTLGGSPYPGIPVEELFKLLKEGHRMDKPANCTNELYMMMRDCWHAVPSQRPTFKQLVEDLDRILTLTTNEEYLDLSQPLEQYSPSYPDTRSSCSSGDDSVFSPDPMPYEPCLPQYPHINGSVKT
T2 sequence (P11362 22-822 isoform P11362-19 limits assumed): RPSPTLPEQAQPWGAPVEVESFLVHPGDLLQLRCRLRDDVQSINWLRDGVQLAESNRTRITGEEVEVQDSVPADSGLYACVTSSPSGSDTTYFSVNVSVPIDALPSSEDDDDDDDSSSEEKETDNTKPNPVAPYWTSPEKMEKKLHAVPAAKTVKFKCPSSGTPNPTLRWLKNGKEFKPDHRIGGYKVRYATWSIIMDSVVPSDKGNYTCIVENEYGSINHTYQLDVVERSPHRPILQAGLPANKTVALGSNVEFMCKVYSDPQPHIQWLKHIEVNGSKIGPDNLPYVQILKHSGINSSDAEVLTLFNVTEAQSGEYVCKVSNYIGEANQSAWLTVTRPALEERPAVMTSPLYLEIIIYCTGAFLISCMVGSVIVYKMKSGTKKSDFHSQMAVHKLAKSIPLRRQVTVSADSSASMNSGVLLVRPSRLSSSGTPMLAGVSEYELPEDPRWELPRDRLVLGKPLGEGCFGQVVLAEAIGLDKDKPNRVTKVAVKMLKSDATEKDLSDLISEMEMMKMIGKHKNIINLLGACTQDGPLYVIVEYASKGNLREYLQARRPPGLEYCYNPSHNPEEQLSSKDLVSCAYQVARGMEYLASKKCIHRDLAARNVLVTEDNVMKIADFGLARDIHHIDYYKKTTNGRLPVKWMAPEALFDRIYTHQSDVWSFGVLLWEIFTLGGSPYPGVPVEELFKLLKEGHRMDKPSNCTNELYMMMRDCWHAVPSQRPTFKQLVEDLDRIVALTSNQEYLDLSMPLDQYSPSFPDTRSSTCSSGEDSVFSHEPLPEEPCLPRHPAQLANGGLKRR

B1: FR1-H7: human monoclonal antibody from phage Fab library, specific for FGFR-1(IIIb) and/or FGFR-1(IIIc), and/or FGFR-4(IIIc); VH/VL SEQ ID NOS:7, 8 (antibody, listed as Homo sapiens)
VH: MAEVQLVQSGAEVKKPGASVKVSCKVSGYTFTDYYMHWVQQAPGKGLEWMGLVDPEDGETIYAEKFQGRVTITADTSTDTAYMELSSLRSEDTAVYYCARDDYMDVWGKGTLVTVSSASTKGP
VL: LETTLTQSPDTLSLSPGEGATLSCRASQSVSGSALAWYQQKPGQAPRLLIYDASSRATGVPDRFSGSGSGADFSLTISRLEPEDFAVYSCQQYGSSPLTFGPGTKVDVKRTVAAPSVFIFPPSDEQLKSGTASVVCLLNNFYPREAKVQWKVD
Kd [1]: > 1000 nM
binding to FGFR-1(IIIb) [2]: strong affinities
binding to the other FGFRs [3]: does not recognize
inhibition of ligand (FGF) mediated receptor phosphorylation ([4]; antibody): significantly inhibits
receptor activation by the antibody by itself ([4]; no ligand): does not activate the receptor
moderate weight loss continued one week after treatment was stopped ([5]; 1.9 mg/kg): ~0.5 g
time to complete weight recovery after treatment was stopped ([5]; 1.9 mg/kg): 25 days
weight loss of the total body weight ([5]; 1.9 mg/kg i.p., within the first 3 treatments): ~20%
lagging time of first significant weight gain after stop of treatments ([5]; 4 mg/kg s.c.): 14 days
unusual weight loss of the total body weight, one animal euthanized ([5]; 19 mg/kg group): ~50%
lagging time of first significant weight gain after stop of treatments ([5]; 19 mg/kg i.p.): 24 days
reduction of non-fasting blood glucose as fraction of the normal glucose level ([5]; 19 mg/kg i.p. and 40 mg/kg s.c. groups, one week after end of treatment): ⅓
lagging time of first significant weight gain after stop of treatments ([5]; 40 mg/kg s.c.): 19 days
exploratory behavior (rearings per min in a novel environment) ([5]; Day 12): not significantly altered
maximal weight loss as fraction of the averaged body weight of the controls ([5]; dosage higher than 4 mg/kg): ⅓
reduction of non-fasting food intake ([5]; groups that lost weight, between second and third treatment): approximately 35%
body weight change ([5]; two lowest dosages 0.19 and 0.4 mg/kg): slight weight gains
serum insulin level ([6]; single 4 mg/kg): significantly reduced
serum leptin level ([6]; single 4 mg/kg): significantly reduced
serum triglycerides level ([6]; single 4 mg/kg): significantly reduced
reduction of averaged body weight compared to control groups ([6]; single 4 mg/kg s.c., 48 hours): approximately 6%
weight reduction of parametrial fat pad ([6]; single 4 mg/kg s.c., 48 hours): approximately 60%
weights of muscle, liver, and spleen ([6]; single 4 mg/kg s.c., 48 hours): appear to be normal
levels of ALT, CPK, BUN, total serum proteins, and serum albumin versus control ([6]; single 4 mg/kg, 48 hours): no significant differences
serum glucose level ([6]; single 4 mg/kg, 48 hours after treatment): did not affect
food intakes ([7]; 7-day period): gradual reduction
weight reduction of the total body weight ([7]; Day 7): approximately 10%
weight of intrascapular brown fat tissue ([7]; day 7): significant reduction
weights of epididymal white adipose tissue and inguinal subcutaneous white adipose tissue ([7]; day 7): changed little
non-fasted blood glucose after weight recovery [8]: restored to normal range
binding to FGFR-1(IIIc) [9]: strong affinities
